First the molecules themselves.
T1: natural Bet v 1 (Betula verrucosa (Betula pendula), UniProt P15494 2-160)
T1 construct: Bought natural protein; also called nBet v 1
T1 chain: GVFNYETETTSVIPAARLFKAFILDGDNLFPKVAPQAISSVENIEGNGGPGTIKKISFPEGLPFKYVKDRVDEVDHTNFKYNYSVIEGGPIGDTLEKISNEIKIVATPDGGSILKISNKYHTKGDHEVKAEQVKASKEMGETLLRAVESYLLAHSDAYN

B1: H4H16991P (antibody, human IgG4, V domains shown)
VH: QVQLVQSGAEVRKPGASVKVSCKASGYTFTGYYLHWVRQAPGQGLEWMGLINPNTGGTNFAQKFQGRVTMTRDSSISAAYMELSRLRSDDTAVYYCARQHWNRYFDNWGQGTLVTVSS
VL: DIQMTQSPSTLSASVGDRVTITCRASQSVGNWLAWYQQKPGKAPKLLIQEASSIESGVPSRFSGSGSGTEFTLIVSSLQPDDFATYYCQQYNSYSWTFGHGTKVEIK
B2: H4H16950P (antibody, human IgG4, V domains shown)
VH: QVQLVQSGAEVKKPGASVKVSCKTSGYTFTNYGITWVRQAPGQGLEWMGWISAYNGNTNYAQNVQGRVTMTTDTSTSTAYMEVRSLRSDDTAVYYCARRSSMLHFQHWGQGTLVTVSS
VL: DIVMTQSPDSLAVSLGERATINCKSSQHVLYDSSNENYLAWFQQKPGQPPKLLIYWASTRESGVPDRFSGSGSGTDFTLTISSLQAEDVAVYYCQQYSSAPYTFGQGTKLEIK
B3: H4H16979P (antibody, human IgG4, V domains shown)
VH: QVQLVQSGAEVKKPGASVKVSCKASGYTFIAYYLHWVRQAPGQGLEWMGLLNPYTGGSYYTQKFQGRVTMTRDTSIDTAYMELNSLRSDDTAIYYCARDKRSYYIPYAFEIWGQGTMVTVSS
VL: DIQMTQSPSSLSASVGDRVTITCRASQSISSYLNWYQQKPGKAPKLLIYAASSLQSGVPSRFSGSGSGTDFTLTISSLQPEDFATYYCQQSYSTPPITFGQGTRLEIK
B4: H4H17027P (antibody, human IgG4, V domains shown)
VH: EVQLVESGGGLVQPGGSLRLSCAASGFTFRNYAMHWVRQAPGEGLEWVAAIYRNSDSIDYADSVKGRFTISRDNAKNSLYLQMNSLKTEDTALYYCAKDEGFLEYFDSWGQGTLVTVSS
VL: EIVLTQSPGTLSLSPGERASLSCRASQSVSSSFLAWYQQKPGQAPRLLIYGVSSRFIGIPDRFSGGGSGTDFTLTITRLEPEDFAVYYCQQYGRSPWTFGQGTKVEIK
B5: H4H16960P (antibody, human IgG4, V domains shown)
VH: QLQLQESGPGLVRPSETLSLTCTVSGGSISSSNYWWGWIRQPPGKGLEWIGSIYYSGITYYNPSLKSRVTISADTSKDQFSLKLRSVTAADTAVYYCAKLEWLRLDFWGQGTTVTVSS
VL: DIQMTQSPSSVSASVGDRVTITCRASQGISSWLVWYQQKPGKVPKLLIYAASSLQSGVPLRFSGSGSGTDFTLTISSLQPEDFATYYCQQAKSFPLTFGQGTRLEIK
B6: H4H16971P (antibody, human IgG4, V domains shown)
VH: QVQLVESGGGVVQPGRSLRLSCAASGFTFSSYGLHWVRQAPGKGLEWVAVISDDGSYKFYADSMKGRFTISRDNSKNTLYLQMNSLRAEDTAVYYCAKDRGRSGWYYFDYWGQGTLVTVSS
VL: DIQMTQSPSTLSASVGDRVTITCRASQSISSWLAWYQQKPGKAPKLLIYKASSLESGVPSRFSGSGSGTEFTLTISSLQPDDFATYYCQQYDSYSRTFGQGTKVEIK
B7: H4H17001P (antibody, human IgG4, V domains shown)
VH: QVQLVESGGGLVKPGGSLRLSCAASGFTFSDYYMNWIRQAPGKGLEWISLISSSGSAIYYSDSVKGRFTISRDNARKSLYLQVNSLRAEDTAVYYCARDRGEWALGAYYYGLDVWGQGTTVTVSS
VL: DIVMTQSPLSLPVTPGEPASISCRSSQSLLHSDGYNYLDWYLQKSGQSPQLLIYLGSNRASGVPDRFSGSGSGTDFTLKISRMEAEDVGVYYCMQALQTPYTFGQGTKLEIK
B8: H4H16967P (antibody, human IgG4, V domains shown)
VH: QVQLVESGGGVVQPGRSLRLSCAASGFTFSSYGMHWFRQAPGKGLEWVGVIWSDGSDKKYADSVKGRFTISRDNSKNTLYLLMNSLRDDDTAVYHCAREGGFLYSSSSHFDYWGQGTLVTVSS
VL: AIQMTQSPSSLSASVGDRVTITCRTSQGIRNDLGWYQQKPGKAPKLLIFAASSLQSGVPSRFSGSGSGTDFTLTISSLQPEDFAIYYCLQDYKYPFTFGGGTKVEIK
B9: H4H17015P (antibody, human IgG4, V domains shown)
VH: QVQLQESGPGLVKPSQTLSLTCTVSGGSISSADHYWSWIRQQPGKGLEWIGYISYRGTTYYNPTLESRVSISVDTFKNQFSLMLHSVTVADTAVYYCAKVLQGLVRFRDYGFDVWGQGTTVTVSS
VL: DIQLTQSPPFLSASVGDRVTITCWASQDISSYLAWYQQNPGKSPKLLIYDAFTLHTGVPSRFSGSGSGTEFTLTISSLQPEDFATFYCQHLYSFPFTFGPGTKVDIK
B10: H4H16946P (antibody, human IgG4, V domains shown)
VH: EVQLVESGGGLVQPGGSLRLSCVASGFTFSNYDMNWVRQAPGEGLEWISYISYSDHNIYYIDSVKGRFTISRDNAKNSLYLQMNSLRAEDTAIYYCAREALASSSFDYWGQGTLVTVSS
VL: EIVMTQSPATLSVSPGERVTLSCRASQSVSGNLAWYQQKPGQAPRLLIYSASTGATGVPARFSGSGSGTEFTLTISSLQSEDFALYYCQQYNKWPRTIGQGTKVEIK
B11: H4H16943P (antibody, human IgG4, V domains shown)
VH: EVQLVESGGGLVQPGGSLRLSCTASGFMSSMYWMSWVRQAPGKGLEWVSNIKQDGTEKNYVESVKGRFTISRDNAKNSLYLQINSLRGEDTAVYYCARDLYSSSSGYYYYGLDVWGQGTTVTVSS
VL: DIVMTQSPLSLPVTPGEPASISCRSSQSLLHSNKYNYLDWYLQKPGQSPQLLIYLSSNRASGVPDRFSGSGSGTEFTLKISRVEAEDVGIYYCMQALHTPLTFGGGTKVEIK
notes: Fully human antibody
B12: H4H16987P (antibody, human IgG4 S228P, kappa, V domains shown)
VH: EVQLVESGGGLVQPGGSLRLSCAASGFTVSSNSMSWVRQAPGEGLEWVSVIFSGGITYYSDSVKGRFTISRHNSKNTLYLQMNSLRTEDTAVYYCARHSNWNFDAFDIWGQGTMVTVSS
VL: DIQMTQSPSSLSASVGDRVTITCRASQSFDTYLNWYQQKPGKAPNLLIYATSSLQSGVPSRFSGSGSGTDFTLTISSLQPEDFGTYYCQQSYSIPYTFGQGTKLEIKR
notes: Human IgG4; also called MAB4

For one experiment, the target named is T1, natural Bet v 1. Briefly: SPR Biacore 4000, mAb captured on anti-human Fc, 25C. (In general: Surface plasmon resonance follows binding to a sensor surface in real time, without labels.)
Procedure: (§1) Equilibrium dissociation constants (KD) for natural Bet v 1 binding to purified anti-Bet v 1 monoclonal antibodies were determined using a real-time surface plasmon resonance biosensor (SPR-Biacore) on a Biacore 4000 instrument. All binding studies were performed in 10 mM HEPES, 150 mM NaCl, 3 mM EDTA, and 0.05% v/v surfactant Tween-20, pH 7.4 (HBS-ET) running buffer at 25° C. and 37° C. […] Association (kₐ) and dissociation (kd) rate constants were determined by fitting the real-time binding sensorgrams to a 1:1 binding model with mass transport limitation using Scrubber 2.0c curve-fitting software. Binding dissociation equilibrium constants (KD) and dissociative half-lives (t½) were calculated from the kinetic rate constants as:
As for B1, the “100 nM natural Bet v 1 Bound (RU)” value worked out at 57 RU; the Kd – broadly, the equilibrium constant for the complex coming apart – was 1.06 nM; the koff (as a rule, the first-order rate constant of dissociation) amounted to 0.000312 s⁻¹; the kon (usually the second-order rate constant of association) is 295000 M⁻¹ s⁻¹. For the same molecule, the t½ (as a rule, the time in which the quantity being followed falls by half) turned out to be 37 min.
For B2 the same measures were 58 RU, 5.23 nM, 0.000503 s⁻¹, 96100 M⁻¹ s⁻¹ and 23 min.
For B3 the same measures were 41 RU, 1.21 nM, 0.000278 s⁻¹, 230000 M⁻¹ s⁻¹ and 42 min.
For B4 the same measures were 48 RU, 4.32 nM, 0.00027 s⁻¹, 62400 M⁻¹ s⁻¹ and 43 min.
For B5, the “100 nM natural Bet v 1 Bound (RU)” value is 57 RU, the Kd is 1.64 nM, the koff is 0.00069 s⁻¹ and the kon was 422000 M⁻¹ s⁻¹. The t½ worked out at 17 min.
Turning to B6, the “100 nM natural Bet v 1 Bound (RU)” value worked out at 57 RU, the Kd is 3.26 nM, the koff was found to be 0.000781 s⁻¹ and the kon is 240000 M⁻¹ s⁻¹. This molecule also gave a t½ of 15 min.
On to B7, for which the “100 nM natural Bet v 1 Bound (RU)” value came to 71 RU, the Kd came out at 1 nM, the koff is 0.000329 s⁻¹ and the kon is 329000 M⁻¹ s⁻¹. The molecule further returned a t½ of 35 min.
Take B8: the “100 nM natural Bet v 1 Bound (RU)” value was 27 RU, the Kd amounted to 3.98 nM, the koff came to 0.000149 s⁻¹ and the kon stood at 37600 M⁻¹ s⁻¹. This molecule registered a t½ of 77 min.
For B9 the same measures were 68 RU, 1.34 nM, 0.000246 s⁻¹, 184000 M⁻¹ s⁻¹ and 47 min.
With B10, the “100 nM natural Bet v 1 Bound (RU)” value is 74 RU; the affinity, expressed as Kd, was 0.982 nM; the koff amounted to 0.000201 s⁻¹; the kon came to 205000 M⁻¹ s⁻¹. The t½ amounted to 58 min.
Turning to B11, the “100 nM natural Bet v 1 Bound (RU)” value came to 71 RU, the Kd came out at 1.4 nM, the koff turned out to be 0.00023 s⁻¹ and the kon turned out to be 164000 M⁻¹ s⁻¹. For the same molecule, the t½ came out at 50 min.
For B12 the same measures were 61 RU, 2.77 nM, 0.00114 s⁻¹, 410000 M⁻¹ s⁻¹ and 10 min.

The next experiment addresses T1, natural Bet v 1. Briefly: SPR Biacore 4000, mAb captured on anti-human Fc, 37C.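 Further: kinetic rate constants from SPR sensorgrams fitted to a 1:1 model with mass transport limitation, HBS-ET buffer pH 7.4, KD and t½ derived from the rate constants.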
Procedure: as §1
Turning to B1, the “100 nM natural Bet v 1 Bound (RU)” value stood at 66 RU, the Kd was 2.16 nM, the koff is 0.00108 s⁻¹ and the kon amounted to 500000 M⁻¹ s⁻¹. The molecule further had a t½ of 11 min.
For B2, in that order: 76 RU, 8.57 nM, 0.00121 s⁻¹, 141000 M⁻¹ s⁻¹ and 10 min.
For B3, in that order: 52 RU, 1.8 nM, 0.000616 s⁻¹, 342000 M⁻¹ s⁻¹ and 19 min.
For B4, in that order: 67 RU, 9.48 nM, 0.00093 s⁻¹, 98100 M⁻¹ s⁻¹ and 12 min.
As to B5, the “100 nM natural Bet v 1 Bound (RU)” value was 65 RU, the Kd was 2.54 nM, the koff was found to be 0.00168 s⁻¹ and the kon is 662000 M⁻¹ s⁻¹. In addition, the t½ is 6.8 min.
For B6, in that order: 66 RU, 6.93 nM, 0.00244 s⁻¹, 352000 M⁻¹ s⁻¹ and 4.7 min.
Consider B7, for which the “100 nM natural Bet v 1 Bound (RU)” value came to 87 RU, binding was put at a Kd of 2.52 nM, the koff came to 0.00122 s⁻¹ and the kon stood at 485000 M⁻¹ s⁻¹. Also, the t½ is 9.5 min.
For B8, in that order: 45 RU, 14.3 nM, 0.000719 s⁻¹, 50400 M⁻¹ s⁻¹ and 16 min.
For B9, in that order: 84 RU, 2.7 nM, 0.000792 s⁻¹, 293000 M⁻¹ s⁻¹ and 15 min.
In the case of B10, the “100 nM natural Bet v 1 Bound (RU)” value was determined as 93 RU, binding was characterised by a dissociation constant (Kd) of 2.08 nM, the off-rate constant (koff) was 0.000601 s⁻¹ and the kon amounted to 289000 M⁻¹ s⁻¹. In addition, the t½ stood at 19 min.
In the case of B11, the “100 nM natural Bet v 1 Bound (RU)” value is 88 RU, the Kd was 4.89 nM, the koff worked out at 0.00127 s⁻¹ and the kon worked out at 260000 M⁻¹ s⁻¹. For the same molecule, the t½ worked out at 9.1 min.
For B12 the same measures were 74 RU, 9.16 nM, 0.00477 s⁻¹, 520000 M⁻¹ s⁻¹ and 2.4 min.
